In the DeepSol protein solubility set:

assay: soluble on expression in E. coli; label from the status in PepcDB or PDB records

| Sequence | soluble on expression in E. coli |
| --- | --- |
| MARQTMNPSIRYLIGVDGGGTGTRIRLHASDGTPLAMAEGGASALSQGIAKSWQAVLSTLEAAFQQAGLPAAPASACAIGLGLSGVHNRQWAGEFESQAPGFARLSLATDGYTTLLGAHGGQPGIIVALGTGSIGEALYPDGSHREAGGWGYPSGDEASGAWLGQRAAQLTQMALDGRHSHSPLTRAVLDFVGGDWQAMMAWNGRATPAQFARLAPLVLSAARVDPEADALLRQAGEDAWAIARALDPQDELPVALCGGLGQALRDWLPPGFRQRLVAPQGDSAQGALLLLQRPSTRLEHHHHHH | soluble |
| MLIAIEGVDGAGKRTLVEKLSGAFRAAGRSVATLAFPRYGQSVAADIAAEALHGEHGDLASSVYAMATLFALDRAGAVHTIQGLCRGYDVVILDRYVASNAAYSAARLHENAAGKAAAWVQRIEFARLGLPKPDWQVLLAVSAELAGERSRGRAQRDPGRARDNYERDAELQQRTGAVYAELAAQGWGGRWLVVGADVDPGRLAATLAPPDVPS | soluble |
| MSFRFLILLLLASTLLVNSFPIGKDNESDESEVEVDTTTEAENIEVESQEASLDEQLNEVSEDPTREKRGLYSSERTEEEVEISHGMHHREKRHSEHLPHPDPPSHTAKRSTEHHRVKRSEGHPHEKKATHSPEGHIVAKDDHHGHEKRSSDSHHGHQKRSVDEHHGHQKKNAEDHHEHQKRSEHVEHQAEMHEHQKRSTQEVSGHPEHHLVKRSGGEGGHRHHRSTDQGLDEDEPEDEIQTDENDEVTEEPGSRKRRNTDTPMPSFPSDHDSEHSNSVAIRVKRVSRAGSSHKVRTLNKNRGNSKAGETTQNDSLTPNSGGVFNS | not soluble |
| MLRLLLRHHFHCLLLCAVWATPCLASPWSTLTANQNPSPPWSKLTYSKPHDAATFYCPFLYPSPPRSPLQFSGFQQVSTGPECRNETLYLLYNREGQTLVERSSTWVKKVIWYLSGRNQTILQRMPQTASKPSDGNVQISVEDAKIFGAHMVPKQTKLLRFVVNDGTRYQMCVMKLESWAHVFRDYSVSFQVRLTFTEANNQTYTFCTHPNLIVLEHHHHHH | not soluble |
| MAHHHHHHMGLEIFEIDTSTPHTGVVIDGTTACREANSGWVTLRAKTPLSAGQCQWAMKVIDQGEGNDGSGLMMGLLPRLNSQQEVAMGSKYISELGGWCLSRAGDSYGCWKCDKMPFSTGCVVEFDWDAASRTLYIVSGKRKASGHIPNVSEADVVYPAFSMFYLNQKLAFV | soluble |
| MSLDEVSQKPHERLAAWLAEDMAAVNGLIRERMASKHAPRIPEVTAHLVEAGGKRLRPLLTLAAARLCGYEGPYHIHLAATVEFIHTATLLHDDVVDESHRRRGKPTANLLWDNKSSVLVGDYLFARSFQLMVETGSLRVMDILANASATISEGEVLQLTAAQDLRTTEDIYLQVVRGKTAALFAAATEVGGVVAGVPEAQVEALHAYGDALGIAFQIVDDLLDYGGVDAQIGKNTGDDFRERKLTLPVIKAVAQADAEERAFWQRVIEKGDQREGDLEQAHAIMSRHGAMEAARQDALRWVTVAREALGQLPEHPLREMLHDLADFVVERIAEGHHHHHH | soluble |
| MGSDKIHHHHHHMVNEELLWVLWQHLLFSVESLHTTTGEPIIIKHTGTLNVHAGPDFSLAKLCIDGIEWAGDVEIHTKASDWYKHKHQHNPAYESVILHVVYEADIDITRADGSCIPVLELKDRIHTMHLETYGYLMEEKKTVPCAHAIHEIPAIVMEQMKQRVLIERLERKTDGLFQLLTDQPNWKMIAGRLIFKSFGTGLNDYLFERMAQQMDFNKLDRLSYAPKSIEALFFGCSGMLEKDWADDFPAALKKEYTYLQRTQTVTCTIDSSEWKFLRTRPVNFPTIRLAQLAALFSNTDWYASFSSITSVKYAEDFLNVSLSDYWLNHYRFDVLSKPAPKHIGKTFANTFLLNAYIPFLVLHARYYKNETTWEQVFEMLDTIQAEDNAITRVWKELGIRMDTGFDSQSGLELYKMYCTHKKCLSCSIGFSILRNASVSAVVK | not soluble |
| MGKATWRQVWERARALAGAAALAVLAGCAAPGAQDPGQARNTAREAYIYAYPMLYHYRSMYEQAIDTASPAYLGGFGVFQHRAEPYTPQSVDVATPNVDTLYSRAWLDLRAEPWVLSLPAVPKSRYNAFQLVDMYTYNLAYLGTRATGFGSGHYLIAGPGWTGPVPKGITQVVRADTDFVAVLGRTALNGPADIKAVHALQARYGLRPLSAYTGTAAPAGAPPVDWLPWNEQRASSIGFIAYLNQLLAHTQPQPESEADMMARFARIGVAPGRDFEPARLDAATRRAMDAGIVDAQQAIEQGARHAAAPATPASLYGSREQLGGDYLKRAVAAAVGIYGNTADEAIYLTIGEDAQGRPLDGARAYELRFAPGRQPPVRFFWSISVYALPARGLAENPIDRYAIGSRTKGIKRGRDGSLTVYLQHDAPARAHAPNWLPTPAGPFVVVARFYGPQPALRDGAWVMPALVPARLEHHHHHH | not soluble |
| MSLIQNVYINGLSGVSAQPTFDESYVDGNVQTETIPYRKVLDPDYKQYLNPTASRRFSRLIKMSLVAAQKSIAMADGVMPEAIITGTGLGCLEDTEKFLKALIENNESMLSPTAFIQSTHNTISGQIAMMITCYYPNYTYSNRYFTFESSLLDAVLMLLDKSCKHVLVNAADEIIPAVHTIVKRMHLWDRAEAIAHKNALAVTAGEGVVSMMLSSEKKESSVAAVKALELIYILPKDTSIEAHFKKFLAEASLTAADIDVLVLGMNGDAASDVYYEPVRNLFSTSTHVVYKHHFGESFTASSFAYWLGAQLIRHKKIDASVILSDKGHRAPKRVLLYNQSHNKYHSFCLLTDVDEGHHHHHH | not soluble |
| MVKFTTFLCIIALLLCSTLTHASARLNPTSVYPEENSFKKLEQGEVICEGVGEEECFLIRRTLVAHTDYIYTQNHNP | soluble |
| MSNQLAVSDVPTAAWTSQQPRSPRMFDQENGFSQNFQPFMQQNKTVNPCTISDDVREEMMRLRRRENAFKTALCKTFQLTKACSYGEQCKFAHSVEELQLKHQNLGINNPKYKTVLCDNFSTTGHCKYGTKCQFIHRTVEPASLKIQNPLVPRFPSWFAPPSSLAREFLCLNHFEASTSSSTTQKLTSSNLSTSTFRYY | not soluble |
| GSHMATPWSGYLDDVSAKFDTGVDNLQTQVTEALDKLAAKPSDPALLAAYQSKLSEYNLYRNAQSNTAKAFKDIDAAIIQNFR | soluble |
| MPNHLAGETSPYLLQHAENPVDWYPWGEEALEIARMLDKPILLSIGYSACHWCHVMAHESFEDAQVATAMNEHFVNIKVDREERPDIDQIYQSAHYTLNHRSGGWPLTMFLTPEQKPFFGGTYFPKEARYSMPGFLELLPKVAELYRTRKTDIEKQNA | not soluble |
| MSLAQKVKLSTIAETLGLSTATVSLALRDSPLVAAVTRDKIKEQARALGYIYNRRAASLRTSRSGIIGVVVHDIMNPFYGEILKAIEAELDRDKQTFILSNHYDSVEKQRDFIETLLQLGGDGVIMSPAIGTPPQDIQLAEDNGMPAILIARSIEGLDVPIFRGDDAYGISLATNHLIGLGHRCIAMVGGTDQTSTGRDRYQGYVNALRKANIEVDPDLRIPGPRSKQGGFEAAVHLLSLPQKPTAVVCWNDLVAIGMMNGIARAGLVPGVDISVTGYDDLEEASIATPALTTVWNGQAEVGRSAARALLDKLSGSHEPDGIHLIKPEMRIRQSTGPLRVTEGHHHHHH | soluble |
| MGSDKIHHHHHHMTSILPLPDPQPSDATNTDTSSLNWEEELDSAIFSFEDIQAELNYKQAQSALRNLVGNIDLSSQEKAGLESEIADLETMLGKLDSMVVQIAAFGMVGRGKSSLLNALVGESVFETGPLHGVTRAAQRVNWRISEEAIGETERALRVTLPSVGRSQVELIDTPGLDEIDGETRTALAEQIAKQADLILFVISGDMTKIEHEALSQLREAGKPIILVFNKVDQYPEADRMAIYQKIRDERVRELLTPLEIVMAAASPLVKTAVRRPDGSRGVQVRTGNAQVAELQVKILEILQREGKALVALNTMLFADNVNEQLVQRKLMIREQNANQLIWKAVMTKAVAIALNPVTVVDILSSIVIDVSLILGLSKLYGIPMTEAGAVQLLQKIALSMGGIGVSELLANLGLSGLKTLLGISATATAGVAIGPYISVALTQAGVAGVSSYAIGQVTTVYLANGATWGPDGPKAVINRILSTLDENSILNRIKDELQVKLRRE | not soluble |
| MSLTRDEIAKYYEAHKGQFVSGRKVRLGLVIFPPRDDADALAAQVKSGAMTFADLAARHSIGPNPQNGGVIGDLLWSDLSMEWRDTLSELKPGDVSRVFLVEGRKAVLQLVASNEGKGQALDDVAEEIENILREPKMQERLQEYIGQLRSRAVIDIREGHHHHHH | soluble |
| MSSMTTTDNKAFLNELARLVGSSHLLTDPAKTARYRKGFRSGQGDALAVVFPGSLLELWRVLKACVTADKIILMQAANTGLTEGSTPNGNDYDRDVVIISTLRLDKLHVLGKGEQVLAYPGTTLYSLEKALKPLGREPHSVIGSSCIGASVIGGICNNSGGSLVQRGPAYTEMSLFARINEDGKLTLVNHLGIDLGETPEQILSKLDDDRIKDDDVRHDGRHAHDYDYVHRVRDIEADTPARYNADPDRLFESSGCAGKLAVFAVRLDTFEAEKNQQVFYIGTNQPEVLTEIRRHILANFENLPVAGEYMHRDIYDIAEKYGKDTFLMIDKLGTDKMPFFFNLKGRTDAMLEKVKFFRPHFTDRAMQKFGHLFPSHLPPRMKNWRDKYEHHLLLKMAGDGVGEAKSWLVDYFKQAEGDFFVCTPEEGSKAFLHRFAAAGAAIRYQAVHSDEVEDILALDIALRRNDTEWYEHLPPEIDSQLVHKLYYGHFMCYVFHQDYIVKKGVDVHALKEQMLELLQQRGAQYPAEHNVGHLYKAPETLQKFYRENDPTNSMNPGIGKTSKRKNWQEVE | soluble |
| MGSDKIHHHHHHMSKLNMKEWINEIIQKKEVVAMPIMTHPGIEMIGKTVRDAVTDGQVHYNAIKALSEKYPTAAATVIMDLTVEAEAFGAEIVFPENEVPSVVGRLLNDEEAIDKLEIPALNKGRIPQYLKANMLAAKTITDRPVFAGCIGPYSLAGRLYDMSEIMMLIYINPEAANSLLKKCSDFILRYCMALKATGVNGVVMAEPAAGLLSDEDCTQYSSVFIKEIVEKVQDDHFTVILHNCGNTGHCTKAMVATGAAAYHFGNKIDMVEALKEVPADALAMGNLDPVSLFKAATPEVMKKATLDLLEATRSYPNFVLSSGCDTPPHTPSENIDAFFAALNEFNNA | not soluble |
| MNYQLVKQVRENNPLRKSFIDLAVKTFDLSFEEWYQQGYWTDAYIPYAFVERNKVIANASANIIDLRWQGEPRRYIQIGTVMTEPDHRNKGLAGQLIHHILQDWQQEADAFFLFANPTTVDFYPKFGFTRSEEYQYIMPVSPRAGDFRKLDMDSPDDVALLRHYYEKSNPFSPLRVEHNFGLLMFYCSAFMKHFVYYSAKNEAVVIAMQNGPVLICFDLFCDVGKSLSTLVNELADDHVYQAILGFTPSEDRLGEYEKIEGEDILFVYDQKENLFKDRKLMFPLLAHA | not soluble |
| MSYLAKFTSPNQMKKLIKTVVADLLGSDEDLKTSSCHVISNLAANSQEMLKGYTSQIVPYVLLEKCREVPKEDEIAREKQEKWNDVWAELVPTTSSAVRLYKEEILNLAIDLVTNNEVWAVRKQAAVMIRVTFENLKKDAGIDVAKKSALSLRDTLNGRIWDGKIEILRALTSAFEAGGADFKRNMSATEIEDMETVLRREASKKNMEYAGAGLATIATWAVISESVESATWLAKKIDENVTKLIGARNDADSDDNMDGLSNLEKEIRASKLVTLNLTALAISLPAFNNAEEAESTLSQIAGYVKSTVIAWKSKQFFFNELAKSLEKWTPREPVAAGKLIDNILEQADELCAQQKKTVATDALQVVLRIQERSDRFGVDRNSVLDSVNRGVAGSETGLGSRFEAKMDTD | not soluble |
